According to patent publication US20240025984A1 (FLUX THERAPEUTICS, published 2024):

T1: SYNGAP1-nanoluc-alfa-tag-fusion
T1 chain: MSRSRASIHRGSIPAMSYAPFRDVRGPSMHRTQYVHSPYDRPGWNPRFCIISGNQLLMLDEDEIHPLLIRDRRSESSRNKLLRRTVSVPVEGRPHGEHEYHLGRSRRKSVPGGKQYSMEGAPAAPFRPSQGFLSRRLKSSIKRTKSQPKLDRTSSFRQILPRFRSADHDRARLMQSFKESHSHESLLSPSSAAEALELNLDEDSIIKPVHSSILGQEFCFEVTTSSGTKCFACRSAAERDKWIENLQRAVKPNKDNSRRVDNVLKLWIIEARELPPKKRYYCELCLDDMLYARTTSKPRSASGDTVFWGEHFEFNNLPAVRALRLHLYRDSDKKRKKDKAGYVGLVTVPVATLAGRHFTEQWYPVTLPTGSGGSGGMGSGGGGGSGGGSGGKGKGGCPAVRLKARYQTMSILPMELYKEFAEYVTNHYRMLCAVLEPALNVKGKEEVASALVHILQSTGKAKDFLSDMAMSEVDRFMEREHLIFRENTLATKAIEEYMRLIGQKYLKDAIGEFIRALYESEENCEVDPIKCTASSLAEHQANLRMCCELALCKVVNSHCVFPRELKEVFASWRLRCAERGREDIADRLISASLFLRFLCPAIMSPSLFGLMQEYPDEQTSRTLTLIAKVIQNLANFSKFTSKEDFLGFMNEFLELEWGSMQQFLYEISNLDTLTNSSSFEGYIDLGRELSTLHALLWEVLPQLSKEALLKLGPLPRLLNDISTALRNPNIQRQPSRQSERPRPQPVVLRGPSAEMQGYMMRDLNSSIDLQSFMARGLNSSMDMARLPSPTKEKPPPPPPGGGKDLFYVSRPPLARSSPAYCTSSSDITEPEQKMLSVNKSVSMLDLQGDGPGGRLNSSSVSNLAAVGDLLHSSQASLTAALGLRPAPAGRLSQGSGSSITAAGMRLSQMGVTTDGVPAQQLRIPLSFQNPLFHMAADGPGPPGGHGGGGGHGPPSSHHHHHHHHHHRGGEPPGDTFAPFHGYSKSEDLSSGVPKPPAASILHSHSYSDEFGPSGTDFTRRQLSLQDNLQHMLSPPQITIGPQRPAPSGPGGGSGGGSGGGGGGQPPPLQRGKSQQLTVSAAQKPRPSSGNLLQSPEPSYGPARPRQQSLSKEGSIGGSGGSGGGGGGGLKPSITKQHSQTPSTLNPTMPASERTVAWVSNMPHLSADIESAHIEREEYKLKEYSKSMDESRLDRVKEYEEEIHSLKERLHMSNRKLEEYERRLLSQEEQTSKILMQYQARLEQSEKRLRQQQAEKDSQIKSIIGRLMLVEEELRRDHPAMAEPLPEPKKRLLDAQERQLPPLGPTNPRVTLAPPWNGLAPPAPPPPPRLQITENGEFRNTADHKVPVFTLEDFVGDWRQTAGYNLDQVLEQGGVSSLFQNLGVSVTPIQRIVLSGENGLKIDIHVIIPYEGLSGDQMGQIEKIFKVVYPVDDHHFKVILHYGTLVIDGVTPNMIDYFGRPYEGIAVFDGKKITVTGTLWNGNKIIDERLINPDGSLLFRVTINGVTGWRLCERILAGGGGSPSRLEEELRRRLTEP

T2: His-SynGAP-EC[1186-1277] (Homo sapiens (Human), UniProt Q96PV0 956-1305)
T2 construct: Expressed in E. coli, purified on nickel resin, 15.75 kDa; also called SYNGAP1 fragment with N-terminal 6His tag
T2 sequence: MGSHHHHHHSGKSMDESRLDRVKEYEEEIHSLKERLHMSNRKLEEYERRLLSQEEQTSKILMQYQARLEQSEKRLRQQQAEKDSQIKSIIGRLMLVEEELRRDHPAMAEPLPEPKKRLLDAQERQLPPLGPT

B1: FireflyLuciferase-P2A-anti-syngap1_FLX00156-Cezanne (other)
chain: MEDAKNIKKGPAPFYPLEDGTAGEQLHKAMKRYALVPGTIAFTDAHIEVDITYAEYFEMSVRLAEAMKRYGLNTNHRIVVCSENSLQFFMPVLGALFIGVAVAPANDIYNERELLNSMGISQPTVVFVSKKGLQKILNVQKKLPIIQKIIIMDSKTDYQGFQSMYTFVTSHLPPGFNEYDFVPESFDRDKTIALIMNSSGSTGLPKGVALPHRTACVRFSHARDPIFGNQIIPDTAILSVVPFHHGFGMFTTLGYLICGFRVVLMYRFEEELFLRSLQDYKIQSALLVPTLFSFFAKSTLIDKYDLSNLHEIASGGAPLSKEVGEAVAKRFHLPGIRQGYGLTETTSAILITPEGDDKPGAVGKVVPFFEAKVVDLDTGKTLGVNQRGELCVRGPMIMSGYVNNPEATNALIDKDGWLHSGDIAYWDEDEHFFIVDRLKSLIKYKGYQVAPAELESILLQHPNIFDAGVAGLPDDDAGELPAAVVVLEHGKTMTEKEIVDYVASQVTTAKKLRGGVVFVDEVPKGLTGKLDARKIREILIKAKKGGKIAVTRLKGSGATNFSLLKQAGDVEENPGPRSGTGSSGQVQLVESGGGLVQPGGSLRLACAASGFTFGTHAMHWVRWAPGKGFEWVSTISSGGGGTRYADSVKGRFTISRDNAKNTVYLQMDNLKPEDTAVYYCNSPSNIANDNWGQGTQVTVSSGGGGSGGGGSGGGGSGGGGSQVQLVESGGGLVQPGGSLRLACAASGFTFGTHAMHWVRWAPGKGFEWVSTISSGGGGTRYADSVKGRFTISRDNAKNTVYLQMDNLKPEDTAVYYCNSPSNIANDNWGQGTQVTVSSGAPGSGPPSFSEGSGGSRTPEKGFSDREPTRPPRPILQRQDDIVQEKRLSRGISHASSSIVSLARSHVSSNGGGGGSNEHPLEMPICAFQLPDLTVYNEDFRSFIERDLIEQSMLVALEQAGRLNWWVSVDPTSQRLLPLATTGDGNCLLHAASLGMWGFHDRDLMLRKALYALMEKGVEKEALKRRWRWQQTQQNKESGLVYTEDEWQKEWNELIKLASSEPRMHLGTNGANCGGVESSEEPVYESLEEFHVFVLAHVLRRPIVVVADTMLRDSGGEAFAPIPFGGIYLPLEVPASQCHRSPLVLAYDQAHFSALVSMEQKENTKEQAVIPLTDSEYKLLPLHFAVDPGKGWEWGKDDSDNVRLASVILSLEVKLHLLHSYMNVKWIPLSSDAQAPLAQ
B2: FireflyLuciferase-P2A-anti-syngap1_FLX00155-Cezanne (other)
chain: MEDAKNIKKGPAPFYPLEDGTAGEQLHKAMKRYALVPGTIAFTDAHIEVDITYAEYFEMSVRLAEAMKRYGLNTNHRIVVCSENSLQFFMPVLGALFIGVAVAPANDIYNERELLNSMGISQPTVVFVSKKGLQKILNVQKKLPIIQKIIIMDSKTDYQGFQSMYTFVTSHLPPGFNEYDFVPESFDRDKTIALIMNSSGSTGLPKGVALPHRTACVRFSHARDPIFGNQIIPDTAILSVVPFHHGFGMFTTLGYLICGFRVVLMYRFEEELFLRSLQDYKIQSALLVPTLFSFFAKSTLIDKYDLSNLHEIASGGAPLSKEVGEAVAKRFHLPGIRQGYGLTETTSAILITPEGDDKPGAVGKVVPFFEAKVVDLDTGKTLGVNQRGELCVRGPMIMSGYVNNPEATNALIDKDGWLHSGDIAYWDEDEHFFIVDRLKSLIKYKGYQVAPAELESILLQHPNIFDAGVAGLPDDDAGELPAAVVVLEHGKTMTEKEIVDYVASQVTTAKKLRGGVVFVDEVPKGLTGKLDARKIREILIKAKKGGKIAVTRLKGSGATNFSLLKQAGDVEENPGPRSGTGSSGQVQLVESGGGLVQPGGSLRLSCAASGFAFGSYDMSWVRQAPGQGPEWVSAITPGGGGTFYAYYSDSVKGRFAISRDNAKNTLTLQMNSLKPDDTAMYYCAKNFYGNGGRGHGTQVTVSSGGGGSGGGGSGGGGSGGGGSQVQLVESGGGLVQPGGSLRLSCAASGFAFGSYDMSWVRQAPGQGPEWVSAITPGGGGTFYAYYSDSVKGRFAISRDNAKNTLTLQMNSLKPDDTAMYYCAKNFYGNGGRGHGTQVTVSSGAPGSGPPSFSEGSGGSRTPEKGFSDREPTRPPRPILQRQDDIVQEKRLSRGISHASSSIVSLARSHVSSNGGGGGSNEHPLEMPICAFQLPDLTVYNEDFRSFIERDLIEQSMLVALEQAGRLNWWVSVDPTSQRLLPLATTGDGNCLLHAASLGMWGFHDRDLMLRKALYALMEKGVEKEALKRRWRWQQTQQNKESGLVYTEDEWQKEWNELIKLASSEPRMHLGTNGANCGGVESSEEPVYESLEEFHVFVLAHVLRRPIVVVADTMLRDSGGEAFAPIPFGGIYLPLEVPASQCHRSPLVLAYDQAHFSALVSMEQKENTKEQAVIPLTDSEYKLLPLHFAVDPGKGWEWGKDDSDNVRLASVILSLEVKLHLLHSYMNVKWIPLSSDAQAPLAQ
B3: FLX00152 (VHH)
VHH: QVQLVESGGGLVQPGGSLRLSCAASGFSFSNFPMMWVRQAPGKGREWVADINQDGRNTYYADSVKGRFTISRDNAKTTVYLQMNNLNPEDTAVYYCQAIRTTTHFDSWGQGTQVTVSS
notes: Camelid VHH from a phage library; also called anti-SynGAP VHH FLX00152; VHH
B4: FLX00153 (VHH)
VHH: QLQLVESGGGLVQPGESLRLSCAASGFTFSNYRMYWVRMAPGKGLEWVSDIDRSGTYTYYADSVKGRFAISRDNAKNTVYLQMNSLKPEDTAVYYCAADRRLIVDLTPEVYDHWGQGTQVTVSS
notes: Camelid VHH from a phage library; also called anti-SynGAP VHH FLX00153; VHH
B5: FireflyLuciferase-P2A-anti-syngap1_FLX00154-Cezanne (other)
chain: MEDAKNIKKGPAPFYPLEDGTAGEQLHKAMKRYALVPGTIAFTDAHIEVDITYAEYFEMSVRLAEAMKRYGLNTNHRIVVCSENSLQFFMPVLGALFIGVAVAPANDIYNERELLNSMGISQPTVVFVSKKGLQKILNVQKKLPIIQKIIIMDSKTDYQGFQSMYTFVTSHLPPGFNEYDFVPESFDRDKTIALIMNSSGSTGLPKGVALPHRTACVRFSHARDPIFGNQIIPDTAILSVVPFHHGFGMFTTLGYLICGFRVVLMYRFEEELFLRSLQDYKIQSALLVPTLFSFFAKSTLIDKYDLSNLHEIASGGAPLSKEVGEAVAKRFHLPGIRQGYGLTETTSAILITPEGDDKPGAVGKVVPFFEAKVVDLDTGKTLGVNQRGELCVRGPMIMSGYVNNPEATNALIDKDGWLHSGDIAYWDEDEHFFIVDRLKSLIKYKGYQVAPAELESILLQHPNIFDAGVAGLPDDDAGELPAAVVVLEHGKTMTEKEIVDYVASQVTTAKKLRGGVVFVDEVPKGLTGKLDARKIREILIKAKKGGKIAVTRLKGSGATNFSLLKQAGDVEENPGPRSGTGSSGQVQLVESGGGLVQPGGSLRLSCAASGFIFSSYQMAWVRQAPGKGLEWVADINTGGWNTYYADSVKGRFTISRDNAKNTLYLEMNSLKPEDTAVYYCAADRWMVAKIVGGDLDFDSWGQGTQVTVSSGGGGSGGGGSGGGGSGGGGSQVQLVESGGGLVQPGGSLRLSCAASGFIFSSYQMAWVRQAPGKGLEWVADINTGGWNTYYADSVKGRFTISRDNAKNTLYLEMNSLKPEDTAVYYCAADRWMVAKIVGGDLDFDSWGQGTQVTVSSGAPGSGPPSFSEGSGGSRTPEKGFSDREPTRPPRPILQRQDDIVQEKRLSRGISHASSSIVSLARSHVSSNGGGGGSNEHPLEMPICAFQLPDLTVYNEDFRSFIERDLIEQSMLVALEQAGRLNWWVSVDPTSQRLLPLATTGDGNCLLHAASLGMWGFHDRDLMLRKALYALMEKGVEKEALKRRWRWQQTQQNKESGLVYTEDEWQKEWNELIKLASSEPRMHLGTNGANCGGVESSEEPVYESLEEFHVFVLAHVLRRPIVVVADTMLRDSGGEAFAPIPFGGIYLPLEVPASQCHRSPLVLAYDQAHFSALVSMEQKENTKEQAVIPLTDSEYKLLPLHFAVDPGKGWEWGKDDSDNVRLASVILSLEVKLHLLHSYMNVKWIPLSSDAQAPLAQ

Experiments:
[1] = target: T1, SYNGAP1-nanoluc-alfa-tag-fusion; test: cell-based or functional assay
His-SynGAP-EC[1186-1277] = target: T2, His-SynGAP-EC[1186-1277]; test: phage display panning, then polyclonal and monoclonal phage ELISA on plate-coated antigen (4 ug/ml)
Method: The concentration of the eluted phages was determined. First, the eluted phages were added to E. Coli TG1. TG1 was poured onto a plate and cultured upside down. The PFU was calculated based on the number of plaques (i.e. dead TG1) on the plate. The eluted phages were added to TG1 followed infection by helper phage and cultured. Phages were precipitated with PEG/NaCl and subsequently resuspended. The phages were screened using a polyclonal ELISA and a monoclonal ELISA. […] ([…]) or control buffer. The coated plate was washed, blocked, washed, and incubated with the amplified eluted phages. Subsequently the plate was washed and incubated with anti-phage-HRP antibody, washed, and incubated with TMB followed by HCL. The result readings were taken at 450 nm. The monoclonal phase ELISA was carried out according to the following. Single TG1 clones randomly selected from plates (described above) were cultured with helper phage. A total of 192 clones from round 3+96 clones from round 4+96 clones from round 5 were selected. The clones were centrifuged and the supernatant (i.e. the phages) were collected. […] The plate was washed, blocked, washed, incubated with the selected phages, washed, incubated with anti-phage-HRP antibody, washed, and incubated with TMB followed by HCL. The results were read of 450 nm.

Binder | increase in SYNGAP1 expression over the control [1] | binding result (His-SynGAP-EC[1186-1277])
B1 | ≥ 2 fold | –
B2 | ≥ 2 fold | –
B3 | – | binds
B4 | – | binds
B5 | ≥ 2 fold | –
